In patent US20250163162A1:
Each block holds one binder with its values, some of them ahead of it.

Molecular target: T1, IL10Rα/IL2Rγ receptor (human) (UniProt Q13651)
T1 sequence (looked up) 1: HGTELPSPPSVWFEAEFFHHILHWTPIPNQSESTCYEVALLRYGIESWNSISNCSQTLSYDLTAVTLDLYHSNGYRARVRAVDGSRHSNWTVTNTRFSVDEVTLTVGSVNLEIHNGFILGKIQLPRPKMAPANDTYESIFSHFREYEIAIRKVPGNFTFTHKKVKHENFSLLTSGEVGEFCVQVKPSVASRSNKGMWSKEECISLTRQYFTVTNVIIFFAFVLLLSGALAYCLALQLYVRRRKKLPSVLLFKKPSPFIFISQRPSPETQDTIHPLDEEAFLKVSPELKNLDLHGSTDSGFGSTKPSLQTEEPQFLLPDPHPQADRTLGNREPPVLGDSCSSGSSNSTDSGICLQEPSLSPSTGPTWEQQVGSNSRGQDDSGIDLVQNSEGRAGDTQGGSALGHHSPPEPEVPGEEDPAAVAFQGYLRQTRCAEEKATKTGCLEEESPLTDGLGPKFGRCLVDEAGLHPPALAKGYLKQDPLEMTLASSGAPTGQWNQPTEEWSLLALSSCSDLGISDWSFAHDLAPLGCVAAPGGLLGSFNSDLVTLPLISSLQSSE
T1 sequence (looked up) 2: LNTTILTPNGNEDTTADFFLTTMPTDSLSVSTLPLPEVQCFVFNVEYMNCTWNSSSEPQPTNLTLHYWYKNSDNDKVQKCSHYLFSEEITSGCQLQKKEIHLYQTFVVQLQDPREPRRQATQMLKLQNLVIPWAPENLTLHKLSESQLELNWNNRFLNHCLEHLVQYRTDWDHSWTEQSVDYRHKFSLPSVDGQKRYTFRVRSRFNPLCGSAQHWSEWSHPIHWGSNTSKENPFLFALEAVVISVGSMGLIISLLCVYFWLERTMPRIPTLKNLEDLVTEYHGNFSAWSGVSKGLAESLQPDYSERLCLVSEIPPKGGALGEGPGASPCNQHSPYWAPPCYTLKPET
Assay: cell-based or functional assay

Granzyme A secretion, CD8 T cells, at 0 µM: 25200 pg/mL | Granzyme A secretion, CD8 T cells, at 0.0001 µM: 22100 pg/mL | Granzyme A secretion, CD8 T cells, at 0.001 µM: 25900 pg/mL | Granzyme A secretion, CD8 T cells, at 0.01 µM: 27600 pg/mL | Granzyme A secretion, CD8 T cells, at 0.1 µM: 30000 pg/mL | Granzyme A secretion, CD8 T cells, at 1 µM: 29800 pg/mL | Granzyme A secretion, CD8 T cells, at 10 µM: 28500 pg/mL | Granzyme A secretion, CD8 T cells, at 100 µM: 25700 pg/mL | Granzyme B secretion, CD8 T cells, at 0 µM: 77700 pg/mL | Granzyme B secretion, CD8 T cells, at 0.0001 µM: 54500 pg/mL | Granzyme B secretion, CD8 T cells, at 0.001 µM: 60900 pg/mL | Granzyme B secretion, CD8 T cells, at 0.01 µM: 79000 pg/mL | Granzyme B secretion, CD8 T cells, at 0.1 µM: 108000 pg/mL | Granzyme B secretion, CD8 T cells, at 1 µM: 134000 pg/mL | Granzyme B secretion, CD8 T cells, at 10 µM: 151000 pg/mL | Granzyme B secretion, CD8 T cells, at 100 µM: 93300 pg/mL | IFNγ secretion, CD8 T cells, at 0 µM: 122000 pg/mL | IFNγ secretion, CD8 T cells, at 0.0001 µM: 104000 pg/mL | IFNγ secretion, CD8 T cells, at 0.001 µM: 113000 pg/mL | IFNγ secretion, CD8 T cells, at 0.01 µM: 131000 pg/mL | IFNγ secretion, CD8 T cells, at 0.1 µM: 144000 pg/mL | IFNγ secretion, CD8 T cells, at 1 µM: 166000 pg/mL | IFNγ secretion, CD8 T cells, at 10 µM: 157000 pg/mL | IFNγ secretion, CD8 T cells, at 100 µM: 148000 pg/mL | IL-1β secretion, LPS treated monocytes, at 0 µM: 6240 pg/mL | IL-1β secretion, LPS treated monocytes, at 0 µM (LPS only): 6880 pg/mL | IL-1β secretion, LPS treated monocytes, at 0.0001 µM: 6290 pg/mL | IL-1β secretion, LPS treated monocytes, at 0.001 µM: 5570 pg/mL | IL-1β secretion, LPS treated monocytes, at 0.01 µM: 5260 pg/mL | IL-1β secretion, LPS treated monocytes, at 0.1 µM: 4020 pg/mL | IL-1β secretion, LPS treated monocytes, at 1 µM: 3660 pg/mL | IL-1β secretion, LPS treated monocytes, at 10 µM: 4140 pg/mL | IL-1β secretion, LPS treated monocytes, at 100 µM: 6480 pg/mL | IL-9 secretion, CD8 T cells, at 0 µM: 1350 pg/mL | IL-9 secretion, CD8 T cells, at 0.0001 µM: 1060 pg/mL | IL-9 secretion, CD8 T cells, at 0.001 µM: 1120 pg/mL | IL-9 secretion, CD8 T cells, at 0.01 µM: 1160 pg/mL | IL-9 secretion, CD8 T cells, at 0.1 µM: 1420 pg/mL | IL-9 secretion, CD8 T cells, at 1 µM: 1780 pg/mL | IL-9 secretion, CD8 T cells, at 10 µM: 2150 pg/mL | IL-9 secretion, CD8 T cells, at 100 µM: 1930 pg/mL
B1: hIL10Ra_VHH14 - hIL2Rg_VHH19, linker GGGS, tag Fc (bispecific antibody, not shown: a dimerising Fc or GST)
chain: QVQLQESGGGSVQAGGSLRLSCGASGYTYSSYCMGWFRQVPGKEREGVAVIDSDGSTSYADSVKGRFTISKDNGKNTLYLQMNSLKPEDTAMYYCAADLGHYRPPCGVLYLGMDYWGKGTQVTVSSGGGSQVQLQESGGGSVQAGGSLRLSCTASGFTFDDREMNWYRQAPGNECELVSTISSDGSTYYADSVKGRFTISQDNAKNTVYLQMDSVKPEDTAVYYCAADFMIAIQAPGAGCWGQGTQVTVSS

Granzyme A secretion, CD8 T cells, at 0 µM: 25200 pg/mL | Granzyme A secretion, CD8 T cells, at 0.0001 µM: 19700 pg/mL | Granzyme A secretion, CD8 T cells, at 0.001 µM: 20900 pg/mL | Granzyme A secretion, CD8 T cells, at 0.01 µM: 22300 pg/mL | Granzyme A secretion, CD8 T cells, at 0.1 µM: 23700 pg/mL | Granzyme A secretion, CD8 T cells, at 1 µM: 26400 pg/mL | Granzyme A secretion, CD8 T cells, at 10 µM: 26500 pg/mL | Granzyme A secretion, CD8 T cells, at 100 µM: 27300 pg/mL | Granzyme B secretion, CD8 T cells, at 0 µM: 77700 pg/mL | Granzyme B secretion, CD8 T cells, at 0.0001 µM: 49300 pg/mL | Granzyme B secretion, CD8 T cells, at 0.001 µM: 45600 pg/mL | Granzyme B secretion, CD8 T cells, at 0.01 µM: 48100 pg/mL | Granzyme B secretion, CD8 T cells, at 0.1 µM: 55300 pg/mL | Granzyme B secretion, CD8 T cells, at 1 µM: 72700 pg/mL | Granzyme B secretion, CD8 T cells, at 10 µM: 84700 pg/mL | Granzyme B secretion, CD8 T cells, at 100 µM: 94600 pg/mL | IFNγ secretion, CD8 T cells, at 0 µM: 122000 pg/mL | IFNγ secretion, CD8 T cells, at 0.0001 µM: 96800 pg/mL | IFNγ secretion, CD8 T cells, at 0.001 µM: 99600 pg/mL | IFNγ secretion, CD8 T cells, at 0.01 µM: 107000 pg/mL | IFNγ secretion, CD8 T cells, at 0.1 µM: 114000 pg/mL | IFNγ secretion, CD8 T cells, at 1 µM: 130000 pg/mL | IFNγ secretion, CD8 T cells, at 10 µM: 134000 pg/mL | IFNγ secretion, CD8 T cells, at 100 µM: 134000 pg/mL | IL-1β secretion, LPS treated monocytes, at 0 µM: 6240 pg/mL | IL-1β secretion, LPS treated monocytes, at 0 µM (LPS only): 6880 pg/mL | IL-1β secretion, LPS treated monocytes, at 0.0001 µM: 6420 pg/mL | IL-1β secretion, LPS treated monocytes, at 0.001 µM: 6640 pg/mL | IL-1β secretion, LPS treated monocytes, at 0.01 µM: 5760 pg/mL | IL-1β secretion, LPS treated monocytes, at 0.1 µM: 6120 pg/mL | IL-1β secretion, LPS treated monocytes, at 1 µM: 5350 pg/mL | IL-1β secretion, LPS treated monocytes, at 10 µM: 5950 pg/mL | IL-1β secretion, LPS treated monocytes, at 100 µM: 6580 pg/mL | IL-9 secretion, CD8 T cells, at 0 µM: 1350 pg/mL | IL-9 secretion, CD8 T cells, at 0.0001 µM: 941 pg/mL | IL-9 secretion, CD8 T cells, at 0.001 µM: 1000 pg/mL | IL-9 secretion, CD8 T cells, at 0.01 µM: 1120 pg/mL | IL-9 secretion, CD8 T cells, at 0.1 µM: 1340 pg/mL | IL-9 secretion, CD8 T cells, at 1 µM: 1400 pg/mL | IL-9 secretion, CD8 T cells, at 10 µM: 1680 pg/mL | IL-9 secretion, CD8 T cells, at 100 µM: 1710 pg/mL
B2: hIL10Ra_VHH14 - hIL2Rg_VHH19, linker GGGS, tag his (bispecific antibody, not shown: small tags and cut ends)
chain: QVQLQESGGGSVQAGGSLRLSCGASGYTYSSYCMGWFRQVPGKEREGVAVIDSDGSTSYADSVKGRFTISKDNGKNTLYLQMNSLKPEDTAMYYCAADLGHYRPPCGVLYLGMDYWGKGTQVTVSSGGGSQVQLQESGGGSVQAGGSLRLSCTASGFTFDDREMNWYRQAPGNECELVSTISSDGSTYYADSVKGRFTISQDNAKNTVYLQMDSVKPEDTAVYYCAADFMIAIQAPGAGCWGQGTQVTVSS
